Source: the supplement of paper PMC9942255

Test system: Bacillus subtilis DB104 (SP-AmyQ fusion secretion)
Experiment: AmyQ secretion efficiency, weighted average sort bin (1 = best secretion, 10 = worst) (bin number (weighted average, 1-10)); higher = lower secretion efficiency
How it was run: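 The secretion score was taken as the read-frequency-weighted mean bin number, normalised to beads per bin, with low-abundance sequences excluded. Bins came from large-particle flow cytometry sorting of occupied alginate beads (~65 nL, about 0.3 cells each, with fluorescein-starch) into 10 equally populated groups by green/red fluorescence ratio after about 13 h at room temperature and nile red staining. The cells were a B. subtilis DB104 library with mature AmyQ fused to designed signal peptides, integrated at amyE, and each bin's amplicons were Illumina-sequenced.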

MKVLLSALLLLLFAFEPSYSGKKL
AmyQ secretion efficiency: 5.87

MKVLLSALLLLLFAFFEPSASGKKL
AmyQ secretion efficiency: 6.51

MKVLLSALLLLLFAFFTSFTLTLFEPSASGKKL
AmyQ secretion efficiency: 7.36

MKVLLSALLLLLFAFGPSASGKKL
AmyQ secretion efficiency: 5.45

MKVLLSALLLLLFAFSPSASGKKL
AmyQ secretion efficiency: 4.69

MKVLLSALLLLLFALVALSFEPSASGKKL
AmyQ secretion efficiency: 3.74

MKVLLSALLLLLFARKKKKRASGKKL
AmyQ secretion efficiency: 6.15

MKVLLSALLLLLFARRKSASGKKL
AmyQ secretion efficiency: 7.09

MKVPKTMLKKRKRKLLLSLTATSVSAHYV
AmyQ secretion efficiency: 5.33

MKVPKTMLKRTAAGLLLSLTATSVSAHYV
AmyQ secretion efficiency: 4.94

MKVPKTMLLSTAAGLLLSLDEDSVSAHYV
AmyQ secretion efficiency: 6.39

MKVPKTMLLSTAAGLLLSLDPTSVSAHYV
AmyQ secretion efficiency: 3.57

MKVPKTMLLSTAAGLLLSLKKRSVSAHYV
AmyQ secretion efficiency: 6.92

MKVPKTMLLSTAAGLLLSLRRKKRKVSAHYV
AmyQ secretion efficiency: 6.33

MKVPKTMLLSTAAGLLLSLTATSASAHYV
AmyQ secretion efficiency: 5.6

MKVPKTMLLSTAAGLLLSLTATSCSAHYV
AmyQ secretion efficiency: 4.58

MKVPKTMLLSTAAGLLLSLTATSDSAHYV
AmyQ secretion efficiency: 6.94

MKVPKTMLLSTAAGLLLSLTATSESAHYV
AmyQ secretion efficiency: 6.28

MKVPKTMLLSTAAGLLLSLTATSFSAHYV
AmyQ secretion efficiency: 6.3

MKVPKTMLLSTAAGLLLSLTATSISAHYV
AmyQ secretion efficiency: 6.77

MKVPKTMLLSTAAGLLLSLTATSKSAHYV
AmyQ secretion efficiency: 6.37

MKVPKTMLLSTAAGLLLSLTATSPPFPPVSAHYV
AmyQ secretion efficiency: 4.04

MKVPKTMLLSTAAGLLLSLTATSRSAHYV
AmyQ secretion efficiency: 6.25

MKVPKTMLLSTAAGLLLSLTATSTSAHYV
AmyQ secretion efficiency: 4.19

MKVPKTMLLSTAAGLLLSLTATSVSAEEE
AmyQ secretion efficiency: 2.6

MKVPKTMLLSTAAGLLLSLTATSVSAHRK
AmyQ secretion efficiency: 4.68

MKVPKTMLLSTAAGLLLSLTATSVSAHYK
AmyQ secretion efficiency: 5.14

MKVPKTMLLSTAAGLLLSLTATSVSAKRK
AmyQ secretion efficiency: 5.92

MKVPKTMLLSTAAGLLLSLTATSVSCHYV
AmyQ secretion efficiency: 5.45

MKVPKTMLLSTAAGLLLSLTATSVSIHYV
AmyQ secretion efficiency: 5.12

MKVPKTMLLSTAAGLLLSLTATSVSSHYV
AmyQ secretion efficiency: 7.63

MKVPKTMLLSTAAGLLLSLTATSVSWHYV
AmyQ secretion efficiency: 4.99

MKVPKTMLLSTAAGLLLSLTATSWSAHYV
AmyQ secretion efficiency: 6.27

MKVPKTMLLSTAAGLLLSLTVSAHYV
AmyQ secretion efficiency: 5.02

MKVPKTMLLSTAAGLLTATSVSAHYV
AmyQ secretion efficiency: 6.58

MKVPKTMNFSFTLLSTAAGLLLSLTATSVSAHYV
AmyQ secretion efficiency: 5.47

MKVPKTMYQRRQAGLLLSLTATSVSAHYV
AmyQ secretion efficiency: 6.61

MKWCSICCAAVLLAGGAAQAEAV
AmyQ secretion efficiency: 3.57

MKWMCKKCCAAVLLAGGAAQAEAV
AmyQ secretion efficiency: 5.26

MKWMCKKCCKKVLLAGGAAQAEAV
AmyQ secretion efficiency: 7.14

MKWMCKRCCRRKRLAGGAAQAEAV
AmyQ secretion efficiency: 7.06

MKWMCMICCAAVLLAMIGAAQAEAV
AmyQ secretion efficiency: 3.44

MKWMCSICCAAVLGAAQAEAV
AmyQ secretion efficiency: 4.75

MKWMCSICCAAVLLAGAAAAQAEAV
AmyQ secretion efficiency: 4.13

MKWMCSICCAAVLLAGEDEDEDAQAEAV
AmyQ secretion efficiency: 8.04

MKWMCSICCAAVLLAGESAQAEAV
AmyQ secretion efficiency: 3.16

MKWMCSICCAAVLLAGGAAASSSVVAQAEAV
AmyQ secretion efficiency: 3.55

MKWMCSICCAAVLLAGGAAQAAAD
AmyQ secretion efficiency: 4.17

MKWMCSICCAAVLLAGGAAQADDE
AmyQ secretion efficiency: 6.18

MKWMCSICCAAVLLAGGAAQARRK
AmyQ secretion efficiency: 6.49

MKWMCSICCAAVLLAGGAAQCEAV
AmyQ secretion efficiency: 3.23

MKWMCSICCAAVLLAGGAAQGEAV
AmyQ secretion efficiency: 3.2

MKWMCSICCAAVLLAGGAAQHEAV
AmyQ secretion efficiency: 8.16

MKWMCSICCAAVLLAGGAAQIEAV
AmyQ secretion efficiency: 2.05

MKWMCSICCAAVLLAGGAAQLEAV
AmyQ secretion efficiency: 3.67

MKWMCSICCAAVLLAGGAAQMEAV
AmyQ secretion efficiency: 3.22

MKWMCSICCAAVLLAGGAAQSEAV
AmyQ secretion efficiency: 4.64

MKWMCSICCAAVLLAGGAAQTEAV
AmyQ secretion efficiency: 3.03

MKWMCSICCAAVLLAGGAAQVEAV
AmyQ secretion efficiency: 2.92

MKWMCSICCAAVLLAGGAAQYEAV
AmyQ secretion efficiency: 7.08

MKWMCSICCAAVLLAGGACQAEAV
AmyQ secretion efficiency: 3.36

MKWMCSICCAAVLLAGGADQAEAV
AmyQ secretion efficiency: 2.46

MKWMCSICCAAVLLAGGAFQAEAV
AmyQ secretion efficiency: 4.41

MKWMCSICCAAVLLAGGAGQAEAV
AmyQ secretion efficiency: 3.36

MKWMCSICCAAVLLAGGAHQAEAV
AmyQ secretion efficiency: 2.89

MKWMCSICCAAVLLAGGAIQAEAV
AmyQ secretion efficiency: 2.58

MKWMCSICCAAVLLAGGAKQAEAV
AmyQ secretion efficiency: 2.68

MKWMCSICCAAVLLAGGALQAEAV
AmyQ secretion efficiency: 2.66

MKWMCSICCAAVLLAGGAMQAEAV
AmyQ secretion efficiency: 3.69

MKWMCSICCAAVLLAGGANQAEAV
AmyQ secretion efficiency: 2.83

MKWMCSICCAAVLLAGGAPQAEAV
AmyQ secretion efficiency: 2.41

MKWMCSICCAAVLLAGGAPTFAQAEAV
AmyQ secretion efficiency: 3.68

MKWMCSICCAAVLLAGGAQAEAV
AmyQ secretion efficiency: 3.54

MKWMCSICCAAVLLAGGAQQAEAV
AmyQ secretion efficiency: 2.93

MKWMCSICCAAVLLAGGARQAEAV
AmyQ secretion efficiency: 2.15

MKWMCSICCAAVLLAGGASFFGTFGPGTTAQAEAV
AmyQ secretion efficiency: 4.06

MKWMCSICCAAVLLAGGASQAEAV
AmyQ secretion efficiency: 3.1

MKWMCSICCAAVLLAGGATQAEAV
AmyQ secretion efficiency: 2.86

MKWMCSICCAAVLLAGGAVQAEAV
AmyQ secretion efficiency: 2.89

MKWMCSICCAAVLLAGGAWQAEAV
AmyQ secretion efficiency: 3.41

MKWMCSICCAAVLLAGGTAQAEAV
AmyQ secretion efficiency: 2.47

MKWMCSICCAAVLLAGIAIAQAEAV
AmyQ secretion efficiency: 6.86

MKWMCSICCAAVLLAGLGAAQAEAV
AmyQ secretion efficiency: 3.8

MKWMCSICCAAVLLAGRRRRRKAQAEAV
AmyQ secretion efficiency: 6.72

MKWMCSICCAAVLLAGTVFLLGAAQAEAV
AmyQ secretion efficiency: 3.59

MKWMCSTCCAAVLLAGGAAQAEAV
AmyQ secretion efficiency: 2.63

MKWMCTKCCTYQQLAGGAAQAEAV
AmyQ secretion efficiency: 7.81

MKWMTNCSICCAAVLLAGGAAQAEAV
AmyQ secretion efficiency: 3.49

MKWYCSICCAAVLLAGGAAQAEAV
AmyQ secretion efficiency: 2.63

MKWYRRRQRCSICCAAVLLAGGAAQAEAV
AmyQ secretion efficiency: 4.99

MKYCQKSISRFLVSLIIGTFVISVPFMANAQSD
AmyQ secretion efficiency: 3.17

MLCKKMLLFSAIASFPVSAQAKDQ
AmyQ secretion efficiency: 4.84

MLCKRKRLFSAIASFPVSAQAKDQ
AmyQ secretion efficiency: 7.61

MLCKRRKRKSAIASFPVSAQAKDQ
AmyQ secretion efficiency: 6.78

MLCVMMLLFMAIASFPVSAQAKDQ
AmyQ secretion efficiency: 5.48

MLCVMMLLFSAIAAFTVTAQAKDQ
AmyQ secretion efficiency: 6.83

MLCVMMLLFSAIAEDEVSAQAKDQ
AmyQ secretion efficiency: 6.57

MLCVMMLLFSAIAEEEDEEAQAKDQ
AmyQ secretion efficiency: 7.25

MLCVMMLLFSAIAKKRRKRAQAKDQ
AmyQ secretion efficiency: 7.12

MLCVMMLLFSAIAKRRVSAQAKDQ
AmyQ secretion efficiency: 7.83

MLCVMMLLFSAIALFLVASFPVSAQAKDQ
AmyQ secretion efficiency: 7.1

MLCVMMLLFSAIAPDPSGAQAKDQ
AmyQ secretion efficiency: 4.72

MLCVMMLLFSAIASAQAKDQ
AmyQ secretion efficiency: 6.18

MLCVMMLLFSAIASFPVSAQAAKK
AmyQ secretion efficiency: 6.38

MLCVMMLLFSAIASFPVSAQAAPQ
AmyQ secretion efficiency: 4.18

MLCVMMLLFSAIASFPVSAQAASR
AmyQ secretion efficiency: 6.18

MLCVMMLLFSAIASFPVSAQAKKK
AmyQ secretion efficiency: 7.53

MLCVMMLLFSAIASFPVSAQCKDQ
AmyQ secretion efficiency: 6.94

MLCVMMLLFSAIASFPVSAQDKDQ
AmyQ secretion efficiency: 6.19

MLCVMMLLFSAIASFPVSAQEKDQ
AmyQ secretion efficiency: 5.69

MLCVMMLLFSAIASFPVSAQHKDQ
AmyQ secretion efficiency: 5.96

MLCVMMLLFSAIASFPVSAQIKDQ
AmyQ secretion efficiency: 5.57

MLCVMMLLFSAIASFPVSAQLKDQ
AmyQ secretion efficiency: 6.33

MLCVMMLLFSAIASFPVSAQMKDQ
AmyQ secretion efficiency: 6.09

MLCVMMLLFSAIASFPVSAQNKDQ
AmyQ secretion efficiency: 6.98

MLCVMMLLFSAIASFPVSAQQKDQ
AmyQ secretion efficiency: 6.18

MLCVMMLLFSAIASFPVSAQRKDQ
AmyQ secretion efficiency: 6.75

MLCVMMLLFSAIASFPVSAQSKDQ
AmyQ secretion efficiency: 5.6

MLCVMMLLFSAIASFPVSAQTKDQ
AmyQ secretion efficiency: 6.25

MLCVMMLLFSAIASFPVSAQVKDQ
AmyQ secretion efficiency: 5.88

MLCVMMLLFSAIASFPVSAQYKDQ
AmyQ secretion efficiency: 6.57

MLCVMMLLFSAIASFPVSASATAQAKDQ
AmyQ secretion efficiency: 5.05

MLCVMMLLFSAIASFPVSCQAKDQ
AmyQ secretion efficiency: 5.97

MLCVMMLLFSAIASFPVSDQAKDQ
AmyQ secretion efficiency: 5.98

MLCVMMLLFSAIASFPVSEQAKDQ
AmyQ secretion efficiency: 4.62

MLCVMMLLFSAIASFPVSFQAKDQ
AmyQ secretion efficiency: 8.56

MLCVMMLLFSAIASFPVSFTFPAFATAQAKDQ
AmyQ secretion efficiency: 7.71

MLCVMMLLFSAIASFPVSGQAKDQ
AmyQ secretion efficiency: 5.05

MLCVMMLLFSAIASFPVSIQAKDQ
AmyQ secretion efficiency: 6.18

MLCVMMLLFSAIASFPVSKQAKDQ
AmyQ secretion efficiency: 7.19

MLCVMMLLFSAIASFPVSLQAKDQ
AmyQ secretion efficiency: 5.46

MLCVMMLLFSAIASFPVSMQAKDQ
AmyQ secretion efficiency: 5.6

MLCVMMLLFSAIASFPVSNQAKDQ
AmyQ secretion efficiency: 5.37

MLCVMMLLFSAIASFPVSPQAKDQ
AmyQ secretion efficiency: 6.39

MLCVMMLLFSAIASFPVSRQAKDQ
AmyQ secretion efficiency: 7.53

MLCVMMLLFSAIASFPVSSQAKDQ
AmyQ secretion efficiency: 5.36

MLCVMMLLFSAIASFPVSTQAKDQ
AmyQ secretion efficiency: 5.3

MLCVMMLLFSAIASFPVSVQAKDQ
AmyQ secretion efficiency: 3.83
